B1: Twister Ribozyme (parent)
chain: AACACUGCCAAUGCCGGUCCCAAGCCCGGAUAAAAGUGGAGGGGGCGG

The variants in this data set derive from B1. The data set is described as follows: self-cleavage, relative activity (ratio to wild type); higher = more cleavage; co-transcriptional.
On to G28C U37G, for which the self-cleavage was 0.144.

As to G28C U37A, the self-cleavage worked out at 0.241.

As to G29A G38A, the self-cleavage is 0.772.

Regarding G29A G38C, the self-cleavage is 0.7.

For the variant C27G A30U, the self-cleavage turned out to be 0.0941.

Take A30U U37A: the self-cleavage came to 0.742.

Regarding A30U U37C, the self-cleavage was determined as 0.72.

For G29U G48C, the self-cleavage was 1.11.

With C27G G44A, the self-cleavage is 0.0871.

As for A30G G48A, the self-cleavage was 0.958.

On to A30C, for which the self-cleavage is 0.911.

As to A30G, the self-cleavage was 0.952.

Regarding A30U, the self-cleavage came out at 0.984.

Take G29A A30G: the self-cleavage amounted to 0.892.

For G29A A30U, the self-cleavage amounted to 0.709.

With G29A A30C, the self-cleavage is 0.865.

As to G28A G29C, the self-cleavage was 0.71.

Turning to G28A G29U, the self-cleavage is 0.9.

As to G29C A33U, the self-cleavage amounted to 0.579.

As for G29C A33G, the self-cleavage was found to be 0.573.

In the case of C27U U31C, the self-cleavage turned out to be 0.651.

With G29U A34G, the self-cleavage was 0.684.

For A30U C46U, the self-cleavage is 0.968.

On to C27G A35C, for which the self-cleavage worked out at 0.104.

With C27G A35G, the self-cleavage worked out at 0.108.

With C27G A35U, the self-cleavage came to 0.0981.

For G28C A34U, the self-cleavage is 0.567.

In the case of G29C C46A, the self-cleavage was 0.708.

As for G29C C46U, the self-cleavage came to 0.769.

Consider G29C C46G, for which the self-cleavage turned out to be 0.586.

As to G28A G42A, the self-cleavage was 0.263.

For G28A G42C, the self-cleavage was 0.272.

As for A30C U31G, the self-cleavage worked out at 0.839.

Take C27U A32U: the self-cleavage was 0.842.

Regarding C27U A32C, the self-cleavage came to 0.755.

Consider C27U G42A, for which the self-cleavage was 0.184.

In the case of C27U G42C, the self-cleavage came out at 0.19.

Turning to C27U G42U, the self-cleavage was found to be 0.177.

In the case of C27U G43C, the self-cleavage was determined as 0.135.

For G29C G38A, the self-cleavage was found to be 0.796.

Take G29C G38C: the self-cleavage is 0.736.

Take A30U A32G: the self-cleavage was found to be 0.928.

Take C27G G45C: the self-cleavage turned out to be 0.0921.

On to C27G G45A, for which the self-cleavage came out at 0.0977.

For C27G G45U, the self-cleavage worked out at 0.0905.

U31A A34C: the self-cleavage is 0.536.

For the variant G29U G43U, the self-cleavage worked out at 0.299.

Take A30U G44U: the self-cleavage came to 0.973.

As for G28C A32C, the self-cleavage was 0.728.

Consider G29A U31C, for which the self-cleavage turned out to be 0.986.

With G29A U31G, the self-cleavage turned out to be 0.926.

In the case of G29A U31A, the self-cleavage stood at 1.17.

As for G29C G36C, the self-cleavage was found to be 0.122.

In the case of G29C G36A, the self-cleavage is 0.188.

Regarding G29C G43C, the self-cleavage was 0.118.

As to G29C G43A, the self-cleavage came out at 0.119.

In the case of G28U G48A, the self-cleavage was 0.726.

Turning to G28U G48U, the self-cleavage was determined as 0.809.

G28U G48C: the self-cleavage was 0.921.

Turning to G28C G36U, the self-cleavage was found to be 0.101.

As to G28A A34U, the self-cleavage amounted to 0.497.

Consider A30U A35U, for which the self-cleavage was 0.812.

Regarding A30U A35G, the self-cleavage is 0.772.

A30U A35C: the self-cleavage turned out to be 1.07.

Take G28C A30U: the self-cleavage was determined as 0.857.

As to G28U, the self-cleavage worked out at 0.91.

As to G28A, the self-cleavage worked out at 0.897.

As for G28C, the self-cleavage came to 0.894.

Take G28C A40C: the self-cleavage turned out to be 0.179.

In the case of G28C A40G, the self-cleavage is 0.188.

For the variant A30G U37G, the self-cleavage worked out at 0.92.

G28C G29A: the self-cleavage came to 1.

For A30G G36A, the self-cleavage turned out to be 0.761.

Turning to A30G G36C, the self-cleavage was 0.422.

In the case of A30U G36C, the self-cleavage was determined as 0.559.

Turning to G28U G44A, the self-cleavage was found to be 0.718.

With G28A U31A, the self-cleavage came to 0.904.

Turning to G28A U31G, the self-cleavage is 0.916.

For G29C A32C, the self-cleavage came out at 0.662.

As to G29C A32G, the self-cleavage worked out at 0.519.

As to A30G G41A, the self-cleavage is 0.666.

As to A30G G41U, the self-cleavage is 0.772.

For A30G G42C, the self-cleavage worked out at 0.571.

For A30G G42A, the self-cleavage was 0.413.

On to G28U G47C, for which the self-cleavage worked out at 0.287.

Consider A30C A34G, for which the self-cleavage turned out to be 0.326.

As for C27U G28A, the self-cleavage came to 0.478.

Consider U31A G42U, for which the self-cleavage stood at 0.341.

As for G29C G41A, the self-cleavage was 0.108.

Regarding G29C G41U, the self-cleavage stood at 0.125.

As for C27U G48C, the self-cleavage came out at 0.844.

With A30G G43C, the self-cleavage amounted to 0.225.

For A30G G43A, the self-cleavage stood at 0.22.

In the case of G28U G39C, the self-cleavage stood at 0.15.

For G28U G39A, the self-cleavage came to 0.362.

Turning to C27U C46U, the self-cleavage is 0.822.

Turning to C27U C46G, the self-cleavage turned out to be 0.914.

With G28C G42U, the self-cleavage worked out at 0.169.

Regarding G28C G42A, the self-cleavage is 0.185.

On to G28C G42C, for which the self-cleavage was 0.296.

For G29U G47U, the self-cleavage amounted to 0.694.

With G29U G47C, the self-cleavage came out at 0.364.

In the case of G29U G47A, the self-cleavage was 0.71.

Consider G29A A35C, for which the self-cleavage came to 0.762.

With G29A A35U, the self-cleavage was found to be 0.887.

Turning to G29U U31A, the self-cleavage was 0.999.

As to C27G U37A, the self-cleavage was found to be 0.106.

With G28C G44U, the self-cleavage is 0.738.

Turning to G28C G44C, the self-cleavage is 0.666.

G28C G43C: the self-cleavage stood at 0.149.

With G28C G43A, the self-cleavage stood at 0.228.

Consider G29U A33U, for which the self-cleavage was 0.911.

Consider G29U A33C, for which the self-cleavage was 0.821.

With A30C A35C, the self-cleavage stood at 0.808.

As for A30C A35G, the self-cleavage was 0.38.

With U31A A40C, the self-cleavage was determined as 0.207.

For G29U U37G, the self-cleavage is 0.418.

Turning to G28U A40C, the self-cleavage stood at 0.136.

G28U A40G: the self-cleavage was 0.155.

With G28U A40U, the self-cleavage came out at 0.156.

As for A30C G36A, the self-cleavage was 0.164.

In the case of C27G G41C, the self-cleavage stood at 0.0915.

Consider C27G G41U, for which the self-cleavage worked out at 0.0753.

Turning to C27G G41A, the self-cleavage was determined as 0.0929.

As for G29U G42U, the self-cleavage is 0.261.

For the variant G29U G42C, the self-cleavage turned out to be 0.388.

For the variant G29A C46G, the self-cleavage turned out to be 0.838.

As for A30C G45A, the self-cleavage is 0.733.

As for A30C G45C, the self-cleavage was 0.266.

Turning to C27U A40U, the self-cleavage came out at 0.164.

With C27U A40G, the self-cleavage is 0.119.

As to C27U A40C, the self-cleavage worked out at 0.159.

For G28U G29U, the self-cleavage turned out to be 0.972.

For C27U G47A, the self-cleavage was found to be 0.56.

With C27U G47U, the self-cleavage turned out to be 0.632.

Regarding C27U G47C, the self-cleavage amounted to 0.323.

As to G28U A34G, the self-cleavage came to 0.574.

A30G A33G: the self-cleavage was 0.806.

A30C U37C: the self-cleavage amounted to 0.154.

Take A30C U37A: the self-cleavage was determined as 0.231.

Regarding G29A G39A, the self-cleavage turned out to be 0.381.

With G29A G39C, the self-cleavage came out at 0.166.

On to G29U G45C, for which the self-cleavage is 0.294.

For G29U G45A, the self-cleavage was 0.812.

Turning to G29U G45U, the self-cleavage turned out to be 0.574.

Turning to G29A G36U, the self-cleavage turned out to be 0.265.

Turning to G29C G39C, the self-cleavage worked out at 0.14.

A30U A33G: the self-cleavage is 1.03.

With A30U A33U, the self-cleavage is 0.873.

Take G28U G45C: the self-cleavage came to 0.175.

As to G28U G45A, the self-cleavage was found to be 0.637.

C27U G39C: the self-cleavage came to 0.136.

Regarding C27U G39A, the self-cleavage worked out at 0.253.

Take U31A C46A: the self-cleavage was found to be 0.816.

As to G29U C46A, the self-cleavage turned out to be 0.876.

As for A30C G42A, the self-cleavage was determined as 0.129.

A30C G42U: the self-cleavage came to 0.0949.

On to G29C A30U, for which the self-cleavage worked out at 1.1.

Take G29C A30G: the self-cleavage was found to be 0.91.

C27U A35U: the self-cleavage was 0.775.

As to C27U A35G, the self-cleavage is 0.271.

Consider A30G G45U, for which the self-cleavage was determined as 0.757.

Consider A30G G45A, for which the self-cleavage came to 0.901.

On to A30G C46A, for which the self-cleavage was found to be 0.763.

Consider G28C G39A, for which the self-cleavage amounted to 0.445.

On to G28C G39U, for which the self-cleavage worked out at 0.173.

As to A30U G47C, the self-cleavage worked out at 0.669.

The values are drawn from the RNAGym collection of RNA variant scans (doi:10.7554/elife.80360).
